This experiment has as its target T1, Recombinant human TRAF2 protein (human, UniProt Q12933 1-501).
T1 sequence (looked up): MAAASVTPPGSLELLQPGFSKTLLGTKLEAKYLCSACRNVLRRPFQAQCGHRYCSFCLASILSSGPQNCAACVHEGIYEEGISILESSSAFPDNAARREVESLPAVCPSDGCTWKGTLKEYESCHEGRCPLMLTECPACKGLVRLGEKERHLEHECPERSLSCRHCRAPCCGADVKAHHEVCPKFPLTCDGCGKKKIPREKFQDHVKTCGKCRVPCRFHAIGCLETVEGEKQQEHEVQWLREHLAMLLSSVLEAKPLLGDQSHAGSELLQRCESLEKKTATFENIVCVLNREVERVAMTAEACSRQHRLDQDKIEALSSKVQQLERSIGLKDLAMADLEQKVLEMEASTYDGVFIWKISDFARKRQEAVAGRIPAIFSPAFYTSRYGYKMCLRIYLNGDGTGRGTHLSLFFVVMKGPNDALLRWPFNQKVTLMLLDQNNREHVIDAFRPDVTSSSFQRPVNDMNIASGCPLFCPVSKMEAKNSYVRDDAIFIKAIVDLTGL
In words: SPR.

B1: Recombinant human STING protein (natural protein, UniProt Q86WV6 135-379, looked up)
chain: GLKGLAPAEISAVCEKGNFNVAHGLAWSYYIGYLRLILPELQARIRTYNQHYNNLLRGAVSQRLYILLPLDCGVPDNLSMADPNIRFLDKLPQQTGDHAGIKDRVYSNSIYELLENGQRAGTCVLEYATPLQTLFAMSQYSQAGFSREDRLEQAKLFCRTLEDILADAPESQNNCRLIAYQEPADDSSFSLSQEVLRHLRQEEKEEVTVGSLKTSAVPSTSTMSQEPELLISGMEKPLPLRTDFS
What is called Kd is the equilibrium constant for the complex coming apart. In the case of B1, the Kd worked out at 502 nM.

(Values after paper PMC10491969 (Journal of Advanced Research, 2022).)
